# Measurements reported in publication PMC4792069.
# Target: LAP-tagged hMps1 (LAP-Mps1), stably expressed from a BAC (human) (UniProt P33981)
# Assay: fluorescence cross-correlation spectroscopy
# Sequence of UniProt P33981 (P33981 whole entry): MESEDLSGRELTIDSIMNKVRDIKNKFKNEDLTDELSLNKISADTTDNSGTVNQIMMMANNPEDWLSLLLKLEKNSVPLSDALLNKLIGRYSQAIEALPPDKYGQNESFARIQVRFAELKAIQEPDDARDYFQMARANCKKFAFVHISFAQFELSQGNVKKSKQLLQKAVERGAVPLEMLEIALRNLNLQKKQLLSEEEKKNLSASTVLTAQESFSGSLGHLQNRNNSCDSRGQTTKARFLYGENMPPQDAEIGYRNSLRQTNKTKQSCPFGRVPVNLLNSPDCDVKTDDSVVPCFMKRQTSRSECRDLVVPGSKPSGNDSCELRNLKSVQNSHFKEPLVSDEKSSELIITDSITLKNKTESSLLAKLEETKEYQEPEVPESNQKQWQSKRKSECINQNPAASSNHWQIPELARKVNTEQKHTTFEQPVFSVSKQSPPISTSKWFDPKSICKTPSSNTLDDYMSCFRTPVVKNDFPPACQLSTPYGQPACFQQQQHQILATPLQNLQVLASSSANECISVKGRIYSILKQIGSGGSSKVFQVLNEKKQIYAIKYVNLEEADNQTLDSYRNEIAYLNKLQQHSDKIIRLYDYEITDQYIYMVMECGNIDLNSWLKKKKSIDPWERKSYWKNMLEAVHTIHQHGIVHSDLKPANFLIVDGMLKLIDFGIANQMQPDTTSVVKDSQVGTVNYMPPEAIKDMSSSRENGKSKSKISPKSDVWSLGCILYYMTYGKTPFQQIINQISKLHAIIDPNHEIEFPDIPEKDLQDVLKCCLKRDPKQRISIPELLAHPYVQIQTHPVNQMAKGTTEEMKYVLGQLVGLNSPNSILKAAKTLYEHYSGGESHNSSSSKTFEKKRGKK
substance,measurement,value
"mCherry-tagged ARHGEF17 (ARHGEF17-mCherry), Q96PE2 1-2063",normalized cross-correlation (FCCS),12.4%
